Experimental data taken from PMC12448071.

Molecular target: F-actin (actin from rabbit skeletal muscle, polymerised) (rabbit) (UniProt P68135)
Test: co-sedimentation; high-speed cosedimentation titration: constant 500 nM FL-HTT with increasing F-actin, 30 min RT; apparent constant (Kdapp); fit accounts for ligand depletion and incomplete saturation

Kd: 236 nM
Substance: recombinant human full-length wild-type HTT (21 glutamines), P42858 1-3142
